One test concerns the target HLA-B*1401 (human) (UniProt P01889). Description: Luminex beads; MAb 1/200; PBS only.
The next test addresses HLA-B*1402 (human). Description: Luminex beads; MAb 1/400; competitor rHLA-E.
The next test addresses HLA-B*1511 (human) (UniProt P01889). Description: Luminex beads; MAb 1/400; competitor rHLA-E.
A further test addresses HLA-B*1513 (human). Description: Luminex beads; MAb 1/400; competitor rHLA-E.
The target in a further test is HLA-B*3701 (human). Description: Luminex beads; MAb 1/400; competitor rHLA-E.
The target of the next test is HLA-B*5101 (human). Description: Luminex beads; MAb 1/400; competitor rHLA-E.
The next test deals with HLA-Cw*0302 (human) (UniProt P10321). Description: Luminex beads; MAb 1/400; competitor rHLA-E.
The target in a further test is HLA-Cw*0501 (human). Description: Luminex beads; MAb 1/400; competitor rHLA-E.
For the next test, the target named is HLA-Cw*1601 (human) (UniProt P10321). Description: Luminex beads; MAb 1/400; competitor rHLA-E.
For test [1], the target named is HLA-Cw*1701 (human). Description: Luminex beads; MAb 1/400; competitor rHLA-E.
A further test concerns the target HLA-B*4006 (human) (UniProt P01889). Description: Luminex beads; MAb 1/400; competitor IgG-free serum.
The next test addresses HLA-Cw*0801 (human) (UniProt P10321). The description is as above.
In test [2] the target is HLA-Cw*1701 (human). The description is as above.
The target of a further test is HLA-Cw*1802 (human) (UniProt P10321). Described as above.
In the next test the target is HLA-A*2402 (A24) (human) (UniProt P04439). Description: Luminex single-antigen beads; MEM-E/02 1/600; serum Mi114 1/100.
Another test has as its target HLA-A*2501 (A25) (human). The test is described as above.
The target in the next test is HLA-A*2601 (A26) (human). The description is as above.
In another test the target is HLA-A*3002 (A30) (human) (UniProt P04439). The description is as above.
The target in a further test is HLA-A*3301 (A33) (human). The description is as above.
Another test deals with HLA-B*0801 (B8) (human) (UniProt P01889). The test is described as above.
The target in a further test is HLA-B*1301 (B13) (human). Described as above.
For another test, the target named is HLA-B*1401 (B64) (human) (UniProt P01889). The test is described as above.
The target of another test is HLA-B*1511 (B75) (human) (UniProt P01889). The test is described as above.
In a further test the target is HLA-B*1513 (B77) (human). The test is described as above.
For another test, the target named is HLA-B*1801 (B18) (human). The test is described as above.
The target in another test is HLA-B*2708 (B27) (human) (UniProt P01889). Described as above.
In another test the target is HLA-B*3801 (B38) (human). The description is as above.
The target of another test is HLA-B*3901 (B39) (human) (UniProt P01889). The test is described as above.
For another test, the target named is HLA-B*4403 (B44) (human). Described as above.
In a further test the target is HLA-B*4501 (B45) (human). Described as above.
Another test deals with HLA-B*4801 (B48) (human) (UniProt P01889). The test is described as above.
A further test deals with HLA-B*5001 (B50) (human). The test is described as above.
Another test concerns the target HLA-B*5301 (B53) (human). The description is as above.
For the next test, the target named is HLA-B*5401 (B54) (human) (UniProt P01889). The test is described as above.
The target in another test is HLA-B*5801 (B58) (human). Described as above.
The target in the next test is HLA-B*6701 (B67) (human) (UniProt P01889). The test is described as above.
Test [3] deals with HLA-Cw*1203 (Cw12) (human) (UniProt P10321). Described as above.
In test [4] the target is HLA-Cw*1502 (Cw15) (human). The test is described as above.

Usually % inhibition stands for the change of the read-out against control, counted positive when it falls.

“murine monoclonal antibody (MAb) MEM-E/02”: the MFI in the test with HLA-B*1401 (human) was 5330 MFI; with HLA-B*1402 (human), 88 MFI; with HLA-B*1511 (human), 111 MFI; with HLA-B*1513 (human), 228 MFI; with HLA-B*3701 (human) it was 39 MFI; in the test with HLA-B*5101 (human), 128 MFI. Also, the MFI amounted to 130 MFI with HLA-Cw*0302 (human); 87 MFI with HLA-Cw*0501 (human); 87 MFI with HLA-Cw*1601 (human); 184 MFI in the test with HLA-Cw*1701 (human) [1]; 5550 MFI with HLA-B*4006 (human); 3530 MFI in the test with HLA-Cw*0801 (human). Moreover, the MFI with HLA-Cw*1701 (human) [2] was determined as 1360 MFI; with HLA-Cw*1802 (human) it was 7220 MFI.
For murine monoclonal antibody MAb MEM-E/02, the MFI is under 500 MFI in the test with HLA-A*2402 (A24) (human); under 500 MFI with HLA-A*2501 (A25) (human); under 500 MFI in the test with HLA-A*2601 (A26) (human); 803 MFI with HLA-A*3002 (A30) (human); under 500 MFI with HLA-A*3301 (A33) (human); under 500 MFI with HLA-B*0801 (B8) (human). Besides, the MFI was under 500 MFI in the test with HLA-B*1301 (B13) (human); under 500 MFI with HLA-B*1401 (B64) (human); under 500 MFI with HLA-B*1511 (B75) (human); 1550 MFI with HLA-B*1513 (B77) (human); under 500 MFI in the test with HLA-B*1801 (B18) (human); 2260 MFI with HLA-B*2708 (B27) (human). The MFI with HLA-B*3801 (B38) (human) is 929 MFI; with HLA-B*3901 (B39) (human) it was 530 MFI; in the test with HLA-B*4403 (B44) (human) it was under 500 MFI; with HLA-B*4501 (B45) (human), under 500 MFI; with HLA-B*4801 (B48) (human), 969 MFI; with HLA-B*5001 (B50) (human), under 500 MFI. Also, the MFI with HLA-B*5301 (B53) (human) is under 500 MFI; with HLA-B*5401 (B54) (human), 990 MFI; in the test with HLA-B*5801 (B58) (human) it was 2110 MFI; with HLA-B*6701 (B67) (human), under 500 MFI; in [3] it was under 500 MFI; in test [4], under 500 MFI. Besides, the % inhibition with HLA-B*2708 (B27) (human) was determined as 29%; in the test with HLA-B*3801 (B38) (human), 76%; in the test with HLA-B*5401 (B54) (human), 95%; in the test with HLA-B*5801 (B58) (human), 37%.

The record behind these values is US20120171195A1.
